The values below come from US20240002500A1 (GUANGDONG FAPON BIOPHARMA, published 2024).

As usually defined, the EC50 is the concentration giving half of the maximal effect.

Test [1] addresses T1, full-length human TIGIT on cells (human, UniProt Q495A1 22-244).
T1 construct: whole, on cells; The same protein is used for CHO-hTIGIT, PBMC and NK92-hTIGIT; the cells are named under assay; also called CHO-hTIGIT; hTIGIT
T1 sequence (looked up): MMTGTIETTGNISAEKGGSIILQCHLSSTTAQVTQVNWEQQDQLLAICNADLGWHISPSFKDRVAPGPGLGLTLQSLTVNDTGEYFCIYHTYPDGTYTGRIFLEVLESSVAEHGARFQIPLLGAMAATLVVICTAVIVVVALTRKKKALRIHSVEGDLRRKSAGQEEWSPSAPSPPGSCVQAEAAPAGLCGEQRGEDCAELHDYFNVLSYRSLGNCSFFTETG
As to the kind of experiment: FACS titration on PBMC of healthy people (natural TIGIT), PE goat anti-mouse IgG; number as printed beside the name, the marker of the legend lies on the leftmost curve. The protocol:
In order to verify that the prepared anti-human TIGIT antibody may effectively bind to naturally expressed TIGIT, the following experiments were specifically performed. PBMC cells in healthy people to be detected were counted, centrifuged at 300 g for 5 min, resuspended with an FCM buffer; and cell density was adjusted to 4E+06 cell/mL for later use. Samples to be detected (including a positive control antibody and a mouse monoclonal antibody) were diluted with the FCM buffer to 20 μg/mL, and then the FCM buffer was used to perform 3× serial dilutions of 12 concentration points; and the isotype control antibody was diluted with the FCM buffer to 20 μg/mL. According to an experimental design, in each well, 50 μL of the antibody and 50 μL of the cell (the volume of each cell added into a 96-well V-shaped plate being 2E+05 cell/well) were respectively added in the 96-well V-shaped plate; and incubation was performed in dark on ice for 30 min. Centrifugation (300 g/5 min) was performed; supernatant was discarded; 200 μL of the FCM buffer was added for washing once; centrifugation (300 g/5 min) was performed; and the supernatant was discarded. […] Centrifugation (300 g/5 min) was performed; supernatant was discarded; 200 μL of the FCM buffer was added for washing once; centrifugation (300 g/5 min) was performed; and the supernatant was discarded. […]

The target in test [2] is T2, hTIGIT-hFc (human, UniProt Q495A1 22-141).
T2 construct: also called antigen protein hTIGIT-hFc; human TIGIT recombinant protein carrying a human Fc tag; not shown: human Fc tag
T2 sequence (looked up): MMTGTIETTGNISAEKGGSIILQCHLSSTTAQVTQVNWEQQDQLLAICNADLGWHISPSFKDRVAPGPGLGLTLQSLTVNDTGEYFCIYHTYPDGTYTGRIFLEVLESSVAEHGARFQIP
Kind of test: FACS blocking: antibody preincubated with hTIGIT-hFc, then CHO-hPVR cells; unit as printed on the axis, Log(uM); the same range is labelled nM in Fig. 4A and the method's top concentration of 40 µg/mL fits nM. The protocol:
The CHO-engineered cells CHO-hPVR cells recombinantly expressing full-length human PVR were counted centrifugated at 300 g for 5 min, resuspended with an FCM buffer, the cells were added to the 96-well V-shaped plate; the volume of each cell added into a 96-well V-shaped plate was 2E+05 cell/well (being added in 50 μL/well); and incubation was performed in dark on ice for 30 min. Centrifugation (300 g/5 min) was performed; supernatant was discarded; 200 μL of the FCM buffer was added for washing once; centrifugation (300 g/5 min) was performed; and the supernatant was discarded. Secondary antibodies (PE anti-human IgG Fc, 1:500 dilution) were added to the 96-well V-shaped plate (in 100 μL/well); and incubation was performed in dark on ice for 30 min. Centrifugation (300 g/5 min) was performed; supernatant was discarded; 200 μL of the FCM buffer was added for washing once; centrifugation (300 g/5 min) was performed; and the supernatant was discarded. 100 μL of the 1×PBS was added for resuspending, and on-machine detection was performed.

B1: 14Tigit-1-1 mouse monoclonal antibody (antibody, V domains shown)
VH: DVQLQESGPGLVKPSQSLSLTCTVTGYSITSDYAWNWIRQFPGNKLEWMGYISYSGSTRSNPSLKSRISITRDTSKNQFFLQLNSMTAEDTATYYCGGWEVRNYYAMDYWGQGTSVTVSS
VL: DIVMTQSHKFMSTSVGDRVSITCKASQHVSTAVAWYQQKPGQSPKLLIYSASYRYTGVPDRFTGSGSGTDFTFTISSVQAEDLAVYYCQQHYNTPWTFGGGTKLEIKR
notes: Mouse monoclonal antibody from hybridoma
On to B1, for which, in test [1], the EC50 stood at 0.179 nM. Also, the “IC50 (read off the curve)” value in test [2] is approximately 1 nM.
